Results: patent US20230126796
Where two headings read alike, the source gives them in different places.

T1: PAR4-C synthetic peptide
T1 chain: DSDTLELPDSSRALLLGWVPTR

T2: PAR4-B synthetic peptide
T2 chain: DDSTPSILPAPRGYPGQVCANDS

B1: cathepsin G (protein)
chain: IIGGRESRPHSRPYMAYLQIQSPAGQSRCGGFLVREDFVLTAAHCWGSNINVTLGAHNIQRRENTQQHITARRAIRHPQYNQRTIQNDIMLLQLSRRVRRNRNVNPVALPRAQEGLRPGTLCTVAGWGRVSMRRGTDTLREVQLRVQRDRQCLRIFGSYDPRRQICVGDRRERKAAFKGDSGGPLLCNNVAHGIVSYGKSSGVPPEVFTRVSSFLPWIRTTMRS

Tests used:
PAR4-B synthetic peptide [1] = test system: PAR4-B synthetic peptide
PAR4-C synthetic peptide [2] = test system: PAR4-C synthetic peptide
PAR4-C synthetic peptide [3] = target: T1, PAR4-C synthetic peptide
PAR4-B synthetic peptide [4] = target: T2, PAR4-B synthetic peptide

Molecule	proteolysis of the peptide, LC-MS/MS (PAR4-B synthetic peptide [1])	proteolysis of the peptide, LC-MS/MS (PAR4-C synthetic peptide [2])	proteolysis of the peptide, LC-MS/MS (PAR4-C synthetic peptide [3])	proteolysis of the peptide, LC-MS/MS (PAR4-B synthetic peptide [4])
alpha-thrombin	PAR4-B was cleaved by thrombin between amino acids Arg47 and Gly48	thrombin failed to cleave PAR4-C		
B1			CatG cleavage generated several fragments, including DSDTLELPSS	little cleavage was observed with CatG
